Patent US20120058906A1 (published 2012)
Values belong to the binder of their own block, whether it stands above or below them.

Key:
[1] = target: T1, rHuman Erythropoietin R/Fc Chimera, CF (R&D Systems Cat#963-ER) (human, UniProt P19235 25-250); assay: MSD ECL multi-spot assay, antigen spotted on plate, Fab 0.03 uM; blank spot 373;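 note: blank spot per well as comparator with Hit at signal to blank ratio of 4 or more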
T1 construct: Bought protein; also called EPOR; EPO R/Fc; Fc part of the bought chimera not given
T1 sequence: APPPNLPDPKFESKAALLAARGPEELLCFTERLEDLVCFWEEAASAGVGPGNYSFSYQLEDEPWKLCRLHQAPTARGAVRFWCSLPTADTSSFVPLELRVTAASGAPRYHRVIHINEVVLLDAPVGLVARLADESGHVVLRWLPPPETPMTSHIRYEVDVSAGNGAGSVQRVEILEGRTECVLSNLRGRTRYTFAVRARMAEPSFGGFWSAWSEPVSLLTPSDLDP

[2] = target: T2, rHuman EGF R/Fc Chimera, CF (R&D Systems Cat#344-ER) (human, UniProt P00533 25-645); assay: as above
T2 construct: Bought protein; also called epidermal growth factor receptor; Fc part of the bought chimera not given

[3] = target: T3, Recombinant Human DLL4 (R&D Systems Cat#1506-D4/CF) (human, UniProt Q9NR61 27-524); assay: as above
T3 construct: Bought protein; also called delta-like protein 4; rHuman DLL4

[4] = target: T4, rHuman Notch-1/Fc Chimera, CF (R&D Systems Cat#3647-TK) (human, UniProt P46531 19-526); assay: as above
T4 construct: Bought protein; Fc part of the bought chimera not given

[5] = target: T5, rHuman IGF-1 sR (IGF-1 sR), CF (R&D Systems Cat#391-GR) (human, UniProt P08069 31-932); assay: as above
T5 construct: Bought soluble receptor; also called insulin-like growth factor-1 soluble receptor; IGF-R1

[6] = target: T6, rHuman ErbB2/Fc Chimera, CF (R&D Systems Cat#1129-ER) (human, UniProt P04626 23-652); assay: as above
T6 construct: Bought protein; also called HER2/neu; human epidermal growth factor 2 receptor; Fc part of the bought chimera not given

[7] = target: T7, rHuman HGF R/c-MET/Fc Chimera, CF (R&D Systems Cat#358-MT/CF) (human, UniProt P08581 25-932); assay: as above
T7 construct: Bought protein; also called HGF R/Fc; hepatocyte growth factor receptor; Fc part of the bought chimera not given

[8] = target: T8, rHuman CD44/Fc Chimera, CF (R&D Systems Cat#3660-CD) (human, UniProt P16070 21-220); assay: as above
T8 construct: Bought protein; Fc part of the bought chimera not given

[9] = target: T9, rHuman P-Cadherin/Fc Chimera, CF (R&D Systems Cat#861-PC) (human, UniProt P22223 108-654); assay: as above
T9 construct: Bought protein; also called CDH3; Fc part of the bought chimera not given

[10] = target: T2, rHuman EGF R/Fc Chimera, CF (R&D …); assay: MSD ECL multi-spot assay, antigen spotted on plate, Fab 0.65 uM; blank spot 441
[11] = target: T3, Recombinant Human DLL4 (R&D Systems …); assay: as above
[12] = target: T5, rHuman IGF-1 sR (IGF-1 sR), CF (R&D …); assay: as above
[13] = target: T6, rHuman ErbB2/Fc Chimera, CF (R&D …); assay: as above
[14] = target: T7, rHuman HGF R/c-MET/Fc Chimera, CF (R&D …); assay: as above
[15] = target: T8, rHuman CD44/Fc Chimera, CF (R&D Systems …); assay: as above
[16] = target: T9, rHuman P-Cadherin/Fc Chimera, CF (R&D …); assay: as above
[17] = target: T1, rHuman Erythropoietin R/Fc Chimera, CF …; assay: MSD ECL multi-spot assay, antigen spotted on plate, Fab 0.25 uM; blank spot 3693
[18] = target: T2, rHuman EGF R/Fc Chimera, CF (R&D …); assay: as above
[19] = target: T3, Recombinant Human DLL4 (R&D Systems …); assay: as above
[20] = target: T5, rHuman IGF-1 sR (IGF-1 sR), CF (R&D …); assay: as above
[21] = target: T9, rHuman P-Cadherin/Fc Chimera, CF (R&D …); assay: as above
[22] = target: T1, rHuman Erythropoietin R/Fc Chimera, CF …; assay: MSD ECL multi-spot assay, antigen spotted on plate, Fab 0.36 uM; blank spot 928;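 note: blank spot per well as comparator with Hit at signal to blank ratio of 4 or more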
[23] = target: T2, rHuman EGF R/Fc Chimera, CF (R&D …); assay: as above
[24] = target: T3, Recombinant Human DLL4 (R&D Systems …); assay: as above
[25] = target: T4, rHuman Notch-1/Fc Chimera, CF (R&D …); assay: as above
[26] = target: T5, rHuman IGF-1 sR (IGF-1 sR), CF (R&D …); assay: as above
[27] = target: T6, rHuman ErbB2/Fc Chimera, CF (R&D …); assay: as above
[28] = target: T7, rHuman HGF R/c-MET/Fc Chimera, CF (R&D …); assay: as above
[29] = target: T8, rHuman CD44/Fc Chimera, CF (R&D Systems …); assay: as above
[30] = target: T9, rHuman P-Cadherin/Fc Chimera, CF (R&D …); assay: as above
[31] = target: T1, rHuman Erythropoietin R/Fc Chimera, CF …; assay: MSD ECL multi-spot assay, antigen spotted on plate, Fab 1.19 uM; blank spot 11543
[32] = target: T2, rHuman EGF R/Fc Chimera, CF (R&D …); assay: as above
[33] = target: T3, Recombinant Human DLL4 (R&D Systems …); assay: as above
[34] = target: T4, rHuman Notch-1/Fc Chimera, CF (R&D …); assay: as above
[35] = target: T5, rHuman IGF-1 sR (IGF-1 sR), CF (R&D …); assay: as above
[36] = target: T9, rHuman P-Cadherin/Fc Chimera, CF (R&D …); assay: as above

ECL signal [17]: 30100
ECL signal [18]: 88000
ECL signal [19]: 14700
ECL signal [20]: 4930
ECL signal [21]: 16100
B3: Fab VH1-46_IGHD2-15*01_IGHJ2*01 & L2_IGKJ1*01 (Fab, V domains shown)
VH: QVQLVQSGAEVKKPGASVKVSCKASGYTFTSYYMHWVRQAPGQGLEWMGIINPSGGSTSYAQKFQGRVTMTRDTSTSTVYMELSSLRSEDTAVYYCAREGYCSGGSCYSYWYFDLWGRGTLVTVSS
VL: not shown

ECL signal [31]: 141000
ECL signal [32]: 32000
ECL signal [33]: 39600
ECL signal [34]: 41700
ECL signal [35]: 14100
ECL signal [36]: 34600
B5: Fab VH1-46_IGHD6-13*01_IGHJ4*01 & L2_IGKJ1*01 (Fab, V domains shown)
VH: QVQLVQSGAEVKKPGASVKVSCKASGYTFTSYYMHWVRQAPGQGLEWMGIINPSGGSTSYAQKFQGRVTMTRDTSTSTVYMELSSLRSEDTAVYYCAREGYSSSWYDYFDYWGQGTLVTVSS
VL: not shown

Further lines, the binder ahead of its results:

B1: Fab VH2-5_IGHD7-27*01_IGHJ2*01 & L2_IGKJ1*01 (Fab, V domains shown)
VH: QITLKESGPTLVKPTQTLTLTCTFSGFSLSTSGVGVGWIRQPPGKALEWLALIYWNDDKRYSPSLKSRLTITKDTSKNQVVLTMTNMDPVDTATYYCAHRPNWGYWYFDLWGRGTLVTVSS
VL: not shown
ECL signal [1]: 492
ECL signal [2]: 381
ECL signal [3]: 476
ECL signal [4]: 563
ECL signal [5]: 344
ECL signal [6]: 2560
ECL signal [7]: 311
ECL signal [8]: 421
ECL signal [9]: 352

B2: Fab VH1-69_IGHD1-1*01_IGHJ6*01 & A17_IGKJ1*01 (Fab, V domains shown)
VH: QVQLVQSGAEVKKPGSSVKVSCKASGGTFSSYAISWVRQAPGQGLEWMGGIIPIFGTANYAQKFQGRVTITADKSTSTAYMELSSLRSEDTAVYYCARGYNWNDDYYYYYGMDVWGQGTTVTVSS
VL: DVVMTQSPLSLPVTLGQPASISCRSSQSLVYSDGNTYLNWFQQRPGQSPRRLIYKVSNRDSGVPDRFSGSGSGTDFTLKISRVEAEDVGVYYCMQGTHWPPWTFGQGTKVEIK
notes: Fab from E. coli; VH joined to the CH1 (Flag and His tags) of Plasmid A, VL to the kappa CL of Plasmid C
ECL signal [10]: 662
ECL signal [11]: 849
ECL signal [12]: 656
ECL signal [13]: 2940
ECL signal [14]: 437
ECL signal [15]: 797
ECL signal [16]: 695

B4: Fab VH1-46_IGHD7-27*01_IGHJ2*01 & A27_IGKJ1*01 (Fab, V domains shown)
VH: QVQLVQSGAEVKKPGASVKVSCKASGYTFTSYYMHWVRQAPGQGLEWMGIINPSGGSTSYAQKFQGRVTMTRDTSTSTVYMELSSLRSEDTAVYYCARANWGYWYFDLWGRGTLVTVSS
VL: not shown
notes: as for B2
ECL signal [22]: 2430
ECL signal [23]: 1400
ECL signal [24]: 9080
ECL signal [25]: 1920
ECL signal [26]: 1080
ECL signal [27]: 1470
ECL signal [28]: 1220
ECL signal [29]: 1540
ECL signal [30]: 1800
